Here are results for one molecule from paper PMC9030869, “Interplay between Alba and Cren7 Regulates Chromatin Compaction in Sulfolobus solfataricus” (Biomolecules, 2022).

In this assay the target is T1, Sulfolobus solfataricus Alba1 (S. solfataricus, UniProt P60849 1-97).
T1 construct: Alba1 of Sulfolobus solfataricus; construct obtained from Dr. Malcolm White (University of St. Andrews); It was obtained from Dr. Malcolm White; source: E. coli BL21(DE3), purified (HiTrap SPHP cation exchange, size exclusion chromatography)
T1 sequence (looked up): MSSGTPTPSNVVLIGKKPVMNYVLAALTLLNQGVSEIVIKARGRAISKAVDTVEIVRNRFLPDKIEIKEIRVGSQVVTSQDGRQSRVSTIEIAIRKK
In words: SEC; equimolar amounts (~100 µM) of Alba1 and Alba2 mixed, then run on a TSKgel G3000SWxl column with 150 mM NaCl in Buffer A as mobile phase. To be noted: both partners purified. In general terms: SEC sorts molecules by how far they enter the pores of the column.

B1: Sulfolobus solfataricus Alba2 (natural protein, S. solfataricus, UniProt Q97ZF4 1-89, looked up)
chain: MTEKLNEIVVRKTKNVEDHVLDVIVLFNQGIDEVILKGTGREISKAVDVYNSLKDRLGDGVQLVNVQTGSEVRDRRRISYILLRLKRVY
notes: Alba2 of Sulfolobus solfataricus, homologue of Alba1; construct obtained from Dr. Malcolm White (University of St. Andrews); It was obtained from Dr. Malcolm White; source: E. coli BL21(DE3), purified (HiTrap SPHP cation exchange, size exclusion chromatography)
Turning to B1, the binding result was “binds”.
